Experimental data reported in US20210388087A1 (Chugai, published 2021).
Where a chain is given by its changes, count along the chain named.

B1: CE115HA000/GLS3000 S27eA (antibody, IgG1, name in Kabat numbering, V domains shown)
VH: QVQLVESGGGVVQPGRSLRLSCAASGFTFSNAWMHWVRQAPGKGLEWVAQIKAKSNNYATYYAESVKGRFTISRDDSKNSLYLQMNSLKTEDTAVYYCRYVHYGAYYGVDAWGQGTTVTVSS
VL: DIVMTQSPLSLPVTPGEPASISCRSSQSLVHANRNTYLHWYQQKPGQAPRLLIYKVSNRFSGVPDRFSGSGSGTDFTLKISRVEAEDVGVYYCGQGTQVPYTFGQGTKLEIK
notes: one-arm IgG1
B2: CE115HA000/GLS3000 F55E (antibody, IgG1, name in Kabat numbering, V domains shown)
VH: B1 VH
VL: B1 VL with A32S, F60E
notes: one-arm IgG1
B3: CE115HA000/GLS3000 F55G (antibody, IgG1, name in Kabat numbering, V domains shown)
VH: B1 VH
VL: B1 VL with A32S, F60G
notes: one-arm IgG1
B4: CE115HA000/GLS3000 F55D (antibody, IgG1, name in Kabat numbering, V domains shown)
VH: B1 VH
VL: B1 VL with A32S, F60D
notes: one-arm IgG1
B5: CE115HA000/GLS3000 F55A (antibody, IgG1, name in Kabat numbering, V domains shown)
VH: B1 VH
VL: B1 VL with A32S, F60A
notes: one-arm IgG1
B6: CE115HA000/GLS3000 F55H (antibody, IgG1, name in Kabat numbering, V domains shown)
VH: B1 VH
VL: B1 VL with A32S, F60H
notes: one-arm IgG1
B7: GLS3000 V27cD (antibody, name in Kabat numbering, V domains shown)
VH: B1 VH
VL: B1 VL with V30D, A32S
notes: one-arm IgG as m2
B8: GLS3000 V94Y (antibody, name in Kabat numbering, V domains shown)
VH: B1 VH
VL: B1 VL with A32S, V99Y
notes: one-arm IgG as m2
B9: GLS3000 V94S (antibody, name in Kabat numbering, V domains shown)
VH: B1 VH
VL: B1 VL with A32S, V99S
notes: one-arm IgG as m2
B10: GLS3000 Y96L (antibody, name in Kabat numbering, V domains shown)
VH: B1 VH
VL: B1 VL with A32S, Y101L
notes: one-arm IgG as m2
B11: GLS3000 V94I (antibody, name in Kabat numbering, V domains shown)
VH: B1 VH
VL: B1 VL with A32S, V99I
notes: one-arm IgG as m2
B12: GLS3000 V51P (antibody, name in Kabat numbering, V domains shown)
VH: B1 VH
VL: B1 VL with A32S, V56P
notes: one-arm IgG as m2
B13: GLS3000 V94H (antibody, name in Kabat numbering, V domains shown)
VH: B1 VH
VL: B1 VL with A32S, V99H
notes: one-arm IgG as m2
B14: GLS3000 V51D (antibody, name in Kabat numbering, V domains shown)
VH: B1 VH
VL: B1 VL with A32S, V56D
notes: one-arm IgG as m2
B15: GLS3000 Y96D (antibody, name in Kabat numbering, V domains shown)
VH: B1 VH
VL: B1 VL with A32S, Y101D
notes: one-arm IgG as m2
B16: GLS3000 V27cE (antibody, name in Kabat numbering, V domains shown)
VH: B1 VH
VL: B1 VL with V30E, A32S
notes: one-arm IgG as m2
B17: GLS3000 V94Q (antibody, name in Kabat numbering, V domains shown)
VH: B1 VH
VL: B1 VL with A32S, V99Q
notes: one-arm IgG as m2
B18: GLS3000 Y96F (antibody, name in Kabat numbering, V domains shown)
VH: B1 VH
VL: B1 VL with A32S, Y101F
notes: one-arm IgG as m2
B19: GLS3000 V94P (antibody, name in Kabat numbering, V domains shown)
VH: B1 VH
VL: B1 VL with A32S, V99P
notes: one-arm IgG as m2
B20: GLS3000 V94K (antibody, name in Kabat numbering, V domains shown)
VH: B1 VH
VL: B1 VL with A32S, V99K
notes: one-arm IgG as m2
B21: GLS3000 V94L (antibody, name in Kabat numbering, V domains shown)
VH: B1 VH
VL: B1 VL with A32S, V99L
notes: one-arm IgG as m2
B22: GLS3000 V51I (antibody, name in Kabat numbering, V domains shown)
VH: B1 VH
VL: B1 VL with A32S, V56I
notes: one-arm IgG as m2
B23: GLS3000 V94G (antibody, name in Kabat numbering, V domains shown)
VH: B1 VH
VL: B1 VL with A32S, V99G
notes: one-arm IgG as m2
B24: GLS3000 V94M (antibody, name in Kabat numbering, V domains shown)
VH: B1 VH
VL: B1 VL with A32S, V99M
notes: one-arm IgG as m2
B25: GLS3000 V94F (antibody, name in Kabat numbering, V domains shown)
VH: B1 VH
VL: B1 VL with A32S, V99F
notes: one-arm IgG as m2
B26: GLS3000 Y32F (antibody, name in Kabat numbering, V domains shown)
VH: B1 VH
VL: B1 VL with A32S, Y37F
notes: one-arm IgG as m2
B27: GLS3000 V27cL (antibody, name in Kabat numbering, V domains shown)
VH: B1 VH
VL: B1 VL with V30L, A32S
notes: one-arm IgG as m2
B28: GLS3000 V51E (antibody, name in Kabat numbering, V domains shown)
VH: B1 VH
VL: B1 VL with A32S, V56E
notes: one-arm IgG as m2
B29: GLS3000 V27cP (antibody, name in Kabat numbering, V domains shown)
VH: B1 VH
VL: B1 VL with V30P, A32S
notes: one-arm IgG as m2
B30: GLS3000 V94D (antibody, name in Kabat numbering, V domains shown)
VH: B1 VH
VL: B1 VL with A32S, V99D
notes: one-arm IgG as m2
B31: GLS3000 V27cS (antibody, name in Kabat numbering, V domains shown)
VH: B1 VH
VL: B1 VL with V30S, A32S
notes: one-arm IgG as m2
B32: GLS3000 V94A (antibody, name in Kabat numbering, V domains shown)
VH: B1 VH
VL: B1 VL with A32S, V99A
notes: one-arm IgG as m2
B33: GLS3000 Y32P (antibody, name in Kabat numbering, V domains shown)
VH: B1 VH
VL: B1 VL with A32S, Y37P
notes: one-arm IgG as m2
B34: GLS3000 Y32D (antibody, name in Kabat numbering, V domains shown)
VH: B1 VH
VL: B1 VL with A32S, Y37D
notes: one-arm IgG as m2
B35: GLS3000 V51G (antibody, name in Kabat numbering, V domains shown)
VH: B1 VH
VL: B1 VL with A32S, V56G
notes: one-arm IgG as m2
B36: GLS3000 V27cI (antibody, name in Kabat numbering, V domains shown)
VH: B1 VH
VL: B1 VL with V30I, A32S
notes: one-arm IgG as m2
B37: GLS3000 Y96E (antibody, name in Kabat numbering, V domains shown)
VH: B1 VH
VL: B1 VL with A32S, Y101E
notes: one-arm IgG as m2
B38: GLS3000 V94E (antibody, name in Kabat numbering, V domains shown)
VH: B1 VH
VL: B1 VL with A32S, V99E
notes: one-arm IgG as m2
B39: GLS3000 Y96H (antibody, name in Kabat numbering, V domains shown)
VH: B1 VH
VL: B1 VL with A32S, Y101H
notes: one-arm IgG as m2
B40: GLS3000 Y32A (antibody, name in Kabat numbering, V domains shown)
VH: B1 VH
VL: B1 VL with A32S, Y37A
notes: one-arm IgG as m2
B41: GLS3000 V27cY (antibody, name in Kabat numbering, V domains shown)
VH: B1 VH
VL: B1 VL with V30Y, A32S
notes: one-arm IgG as m2
B42: GLS3000 V94N (antibody, name in Kabat numbering, V domains shown)
VH: B1 VH
VL: B1 VL with A32S, V99N
notes: one-arm IgG as m2
B43: GLS3000 V94T (antibody, name in Kabat numbering, V domains shown)
VH: B1 VH
VL: B1 VL with A32S, V99T
notes: one-arm IgG as m2
B44: GLS3000 V94R (antibody, name in Kabat numbering, V domains shown)
VH: B1 VH
VL: B1 VL with A32S, V99R
notes: one-arm IgG as m2
B45: GLS3000 V94W (antibody, name in Kabat numbering, V domains shown)
VH: B1 VH
VL: B1 VL with A32S, V99W
notes: one-arm IgG as m2

target: T1, CD3 epsilon homodimer protein (UniProt P07766 23-126); assay: SPR, antibody over immobilised CD3e homodimer;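 note: SPR at 25 °C with CD3 epsilon homodimer amine-coupled to a CM4 sensor chip and antibody flowed over as analyte in HBS-EP+ running buffer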
T1 construct: also called CD3 (CD3 epsilon)
T1 sequence (P07766 23-126): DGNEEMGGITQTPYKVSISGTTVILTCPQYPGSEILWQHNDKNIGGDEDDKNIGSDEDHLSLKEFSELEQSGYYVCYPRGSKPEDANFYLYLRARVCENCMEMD

In order of falling “KD ratio to GLS3000” value:
1. B5  1.16
2. B3  1.15
3. B4  1.02
4. B6  1.02
5. B1  1.01
6. B2  0.92

target: T2, CD3 epsilon homodimer protein (UniProt P07766 23-126); assay: SPR Biacore T200, CD3e homodimer on chip, vs unaltered GLS3000 antibody
T2 construct: also called CD3 (CD3 epsilon)
T2 sequence (P07766 23-126): as above
Protocol: An appropriate amount of CD3 epsilon homodimer protein was immobilized onto Sensor chip CM4 (GE Healthcare Japan Corp.) by the amine coupling method. Then, the antibody having an appropriate concentration was injected thereto as an analyte and allowed to interact with the CD3 epsilon homodimer protein on the sensor chip. Then, the sensor chip was regenerated by the injection of 10 mmol/L glycine-HCl (pH 1.5). The assay was conducted at 25 degrees C., and HBS-EP+(GE Healthcare Japan Corp.) was used as a running buffer. […] Each parameter was calculated using Biacore T200 Evaluation Software (GE Healthcare Japan Corp.).

In order of rising “ratio of amounts bound (Z=Y/X)” value:
1. B15  0.17
2. B37  0.17
3. B34  0.23
4. B39  0.23
5. B33  0.24
6. B40  0.24
7. B26  0.29
8. B29  0.3
9. B7  0.32
10. B10  0.32
11. B12  0.32
12. B14  0.33
13. B21  0.44
14. B24  0.44
15. B23  0.48
16. B38  0.5
17. B31  0.51
18. B20  0.57
19. B45  0.58
20. B16  0.61
21. B8  0.63
22. B28  0.64
23. B11  0.66
24. B44  0.66
25. B25  0.71
26. B17  0.76
27. B41  0.77
28. B13  0.78
29. B22  0.81
30. B27  0.84
31. B35  0.84
32. B30  0.89
33. B9  0.93
34. B43  0.93
35. B36  0.96
36. B32  1.05
37. B42  1.05
38. B18  1.17
39. B19  1.26
